Values joined by “and” are separate entries in the source; they are usually repeats but may differ in a detail not shown here. Equal values may be shown once.
What was measured:
[1] = target: T1, recombinant human ILT7 protein (human, UniProt P59901 24-446, limits assumed); test: SPR on ProteOn
T1 construct: Soluble recombinant protein used in ProteOn and BIAcore SPR; also called rILT7; Soluble Recombinant Human ILT7

[2] = target: T2, HA-tagged human ILT7 on CT-550 cells (human, UniProt P59901 24-499); test: cell-based or functional assay
cynomolgus ILT7 [3] = target: T3, cynomolgus ILT7 (cynomolgus, UniProt P59901 24-499 (human entry)); test: cell-based or functional assay
[4] = target: T2, HA-tagged human ILT7 on CT-550 cells; test: flow cytometry (MFI) on human ILT7-expressing cells, left panel 'Human ILT7', table 'Ec50 (pM) Mean ± SD n=3'
cynomolgus ILT7 [5] = target: T3, cynomolgus ILT7; test: flow cytometry on CynoILT7 CT-125 cells
Procedure: (§1) Binding of anti-ILT7 variants and isotype controls on human and cynomolgus ILT7 was assessed by flow cytometry analysis using CT-550 and cynoILT7 CT-125 cells respectively. CT-125 cells were used as control. Cells were resuspended in Blocking Buffer (PBS supplemented with 10% FBS) at a concentration of 5 million cells per mL and transferred into a round-bottom 96-well plates (BD Falcon™ Clear Microtest Plate, BD Biosciences) at 100 μL per well. Anti-ILT7 variants and control antibodies were added onto the cells for 30 min at 4° C. on a plate shaker. Cells were washed three times with PBS and resuspended in Blocking Buffer (100 μL/well). Human IgG binding on cell surface was detected using a secondary anti-human IgG antibody conjugated to DyLight 649 (1 in 1000 dilution). Cells were incubated in the dark for 30 min at 4° C. on a plate shaker. Cells were washed three times with PBS and surface fluorescence was acquired using LSRII Flow Cytometry System and FACSDiva Software (both from BD Biosciences).
In order to determine the binding EC₅₀ of the variants on cells expressing cynomolgus ILT7, the antibodies were screened for binding on CynoILT7 CT-125 cells by flow cytometry. […] The graph in FIG. 3 represents the mean results from two independent experiments, and the table in FIG. 3 show the average EC₅₀.

[6] = target: T2, HA-tagged human ILT7 on CT-550 cells; test: flow cytometry on human ILT7-expressing cells, left panel 'Human ILT7', table 'Ec50 (nM)'
Procedure: as §1

cynomolgus ILT7 [7] = target: T3, cynomolgus ILT7; test: flow cytometry on cynomolgus ILT7-expressing cells, bottom panel, table 'Ec50 (pM)'
Procedure: as §1

[8] = target: T2, HA-tagged human ILT7 on CT-550 cells; test: flow cytometry on CT-550 cells
Procedure: as §1
(§2) In order to determine the binding EC50 of ILT70019, ILT70028, ILT70052, ILT70076, ILT70080, ILT70083, ILT70089, ILT70100, ILT70137, ILT70142 and ILT70144 on cells expressing human ILT7, the candidates were screened for binding on CT-550 cells by flow cytometry. ILT70080 (EC₅₀=0.28 nM), ILT70083 (EC₅₀=0.37 nM), ILT70137 (EC₅₀=0.41 nM), ILT70144, ILT70142, ILT70052, and ILT70100 bound to human ILT7-expressing cells. […] The anti-ILT7 antibodies 7C7 (7C7 is described above in Example 1) and SBI33 (SBI33 refers to the anti-ILT7 antibody ILT7#33 provided in U.S. Published Application No. 2009/0280128) were used as positive controls.

cynomolgus ILT7 [9] = target: T3, cynomolgus ILT7; test: flow cytometry (MFI) on cynomolgus ILT7-expressing cells, right panel 'Cynomolgus ILT7', table 'Ec50 (pM) Mean ± SD n=3'
[10] = target: T2, HA-tagged human ILT7 on CT-550 cells; test: flow cytometry on CT-550 cells expressing human ILT7, anti-human IgG DyLight 649 detection; table 'Mean Ec50 (nM)', n = 2
Procedure: as §1, §2

cynomolgus ILT7 [11] = target: T3, cynomolgus ILT7; test: flow cytometry on cynomolgus ILT7-expressing cells, right panel 'Cyno ILT7', table 'Ec50 (nM)'
Procedure: as §1

[12] = target: T2, HA-tagged human ILT7 on CT-550 cells; test: flow cytometry on CT-550 cells (human ILT7), top panel, table 'Ec50 (pM)'
Procedure: as §1

cynomolgus ILT7 [13] = target: T3, cynomolgus ILT7; test: flow cytometry on CynoILT7 CT-125 cells (cynomolgus ILT7), bottom panel, table 'Ec50 (pM)'
Procedure: as §1

[14] = target: T2, HA-tagged human ILT7 on CT-550 cells; test: flow cytometry (MFI) on human ILT7-expressing cells
Procedure: as §1
Anfucosylated version of ILT70080.6 was generated. […] The tables in FIG. 15 provide the mean results of three independent binding experiments measuring mean fluorescence intensity (MFI).

cynomolgus ILT7 [15] = target: T3, cynomolgus ILT7; test: flow cytometry (MFI) on cynomolgus ILT7-expressing cells
Procedure: as §1

T3 sequence (P59901 other isoform, or with tags, fused parts or gaps limits assumed): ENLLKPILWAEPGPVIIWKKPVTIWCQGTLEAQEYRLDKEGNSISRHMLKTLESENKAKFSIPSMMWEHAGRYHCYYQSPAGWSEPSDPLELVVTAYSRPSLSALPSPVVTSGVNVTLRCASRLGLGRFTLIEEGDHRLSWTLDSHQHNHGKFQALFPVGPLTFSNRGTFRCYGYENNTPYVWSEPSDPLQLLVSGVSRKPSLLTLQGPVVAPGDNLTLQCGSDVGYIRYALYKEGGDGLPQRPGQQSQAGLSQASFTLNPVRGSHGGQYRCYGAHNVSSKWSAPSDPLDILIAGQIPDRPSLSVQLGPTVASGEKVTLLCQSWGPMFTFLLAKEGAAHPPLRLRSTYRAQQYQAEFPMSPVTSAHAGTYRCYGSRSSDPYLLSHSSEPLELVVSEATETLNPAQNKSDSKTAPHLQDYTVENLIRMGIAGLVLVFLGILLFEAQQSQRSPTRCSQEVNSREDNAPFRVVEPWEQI
T2 sequence (P59901 24-499): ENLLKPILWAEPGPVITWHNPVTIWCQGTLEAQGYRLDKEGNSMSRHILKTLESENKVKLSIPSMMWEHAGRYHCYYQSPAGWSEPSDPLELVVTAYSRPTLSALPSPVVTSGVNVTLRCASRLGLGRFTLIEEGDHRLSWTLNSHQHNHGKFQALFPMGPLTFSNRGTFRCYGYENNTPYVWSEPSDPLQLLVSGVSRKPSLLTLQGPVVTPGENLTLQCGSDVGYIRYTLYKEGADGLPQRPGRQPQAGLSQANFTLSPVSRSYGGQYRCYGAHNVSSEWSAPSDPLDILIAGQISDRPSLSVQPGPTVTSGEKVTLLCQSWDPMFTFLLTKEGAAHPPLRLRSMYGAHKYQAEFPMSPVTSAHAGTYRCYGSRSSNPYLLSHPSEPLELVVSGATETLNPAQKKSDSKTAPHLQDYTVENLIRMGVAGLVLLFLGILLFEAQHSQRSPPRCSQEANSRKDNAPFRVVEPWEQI
T1 sequence (P59901 24-446 limits assumed): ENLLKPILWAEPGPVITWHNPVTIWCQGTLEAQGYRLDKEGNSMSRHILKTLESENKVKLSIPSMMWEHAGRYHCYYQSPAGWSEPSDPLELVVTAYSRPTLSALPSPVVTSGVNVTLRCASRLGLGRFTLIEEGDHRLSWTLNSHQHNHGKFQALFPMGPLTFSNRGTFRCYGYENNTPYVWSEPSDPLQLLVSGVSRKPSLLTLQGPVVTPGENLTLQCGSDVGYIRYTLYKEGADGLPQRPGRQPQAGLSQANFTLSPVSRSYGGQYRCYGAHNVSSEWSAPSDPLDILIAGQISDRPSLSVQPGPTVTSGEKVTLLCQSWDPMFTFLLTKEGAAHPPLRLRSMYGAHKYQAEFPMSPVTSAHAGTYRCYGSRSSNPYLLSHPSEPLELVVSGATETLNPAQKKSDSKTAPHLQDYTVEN

Row | ADCC EC50 [2] | ADCC EC50 (cynomolgus ILT7 [3]) | EC50 [4] [nM] | EC50 (cynomolgus ILT7 [5]) [nM] | EC50 [6] [nM] | EC50 (cynomolgus ILT7 [9]) [nM] | EC50 [10] [nM] | Binder | other results
1 | – | – | – | – | – | – | – | 10D10 (antibody, V domains shown, Humanized variant of SBI28 from a framework-shuffled Fab library) VH: EVQLVESGGGVVQPGRSLRLSCAASGFTFSTYPIEWVRQAPGQGLEWIGNFHLYNDDTKYNEKFKGRVTMTTDTSTSTVYMELSSLRSEDTAVYYCTRGDDYGMDYWGQGTLVTVSS VL: NIQMTQSPSSLSASVGDRVTITCKASQNVRTAVAWYQQKPGKAPKRLIYLASNRHTGVPSRFSGSGSGTDFTLTISSLQSEDFATYYCLQHWNYPFTFGPGTKLEIK | fold lower affinity than SBI28ch [1]: 3 fold
2 | 0.089 nM and 0.094 nM | 0.433 nM and 0.36 nM | 0.308 | 1.37 | 0.25 | 1.28 | – | ILT70083 (antibody, V domains shown) VH: EVQLLESGGGLVQPGGSLRLSCAASGFTFSSYAMSWVRQAPGKGLEWVSAISGSGGSTYYADSVKGWFTISRDNSKNTLYLQMNSLRAEDTAVYYCARRTYYYDSDGHSDVFDIWGRGTLVTVSS VL: QSVVTQPPSVSAAPGQKVTISCSGSASNIGSNFVSWYQQLPGRAPKLLIYDNDKRDLGIPDRFSASISSTSAALAITGLQTEDEADYYCGTWDTSLTVGVFGGGTKLTVL | EC50 (cynomolgus ILT7 [7]): 2.65 nM; EC50 [8]: 0.37 nM and 0.464 nM
3 | 0.0105 nM | 0.057 nM | 0.211 | – | 0.38 | 0.863 | – | afucosylated ILT70083 (antibody, V domains shown, afucosylated: lacks the α-1,6 fucose moiety on the N-glycan at Asn-297 of the heavy chain) VH: EVQLLESGGGLVQPGGSLRLSCAASGFTFSSYAMSWVRQAPGKGLEWVSAISGSGGSTYYADSVKGWFTISRDNSKNTLYLQMNSLRAEDTAVYYCARRTYYYDSDGHSDVFDIWGRGTLVTVSS VL: QSVVTQPPSVSAAPGQKVTISCSGSASNIGSNFVSWYQQLPGRAPKLLIYDNDKRDLGIPDRFSASISSTSAALAITGLQTEDEADYYCGTWDTSLTVGVFGGGTKLTVL | –
4 | – | 0.073 nM | – | 0.35 | – | – | 23.1 | ILT70052 (antibody, V domains shown) VH: EVQLVESGGGLVKPGGSLRLSCEASGFTFTDYYMNWIRQAPGKGLEWISYISPGGTTVYYADSVKGRFTISRDNAKNSLYLQMNSLRVEDTAVYYCARDISGYGDWFDPWGKGTLVTVSS VL: QSVVTQPPSASGTPGQRVTISCSGSSSNIGSNTVNWYQLLPATAPRILIYNNNQRPSGVPDRFAGSKSGTSASLAISGLQSEDEADYYCGAWDDSLNSPVFGGGTKLTVL | –
5 | 0.001 nM | 0.00051 nM | – | – | 0.34 | – | – | afucosylated ILT70080 (antibody, V domains shown, afucosylated: lacks the α-1,6 fucose moiety on the N-glycan at Asn-297 of the heavy chain, also called Afucosylated variant ITL70080) VH: QVQLVQSGAEVKAPGTSVKVSCKASGDSFRNYAVSWVRQAPGQGLEWMGAMMPSFGTREHSQQFNGRVTLSADESTSTAYLELSSLRYDDTAVYYCAGSRDYNAYHFWTGPPDFWGRGTLVTVSS VL: SYELTQPPSVSVAPGKTAKISCGGDSVGSTSVHWYQQKPGQAPVMVMFYNSDRPSGIPERFSGSISGNTATLTISRVEAGDEADYYCQVWDTSSDHPEFGGGTKLTVL | EC50 (cynomolgus ILT7 [11]): 0.4 nM
6 | < 0.0141 nM and 0.0069 nM | – | 0.155 | – | – | 0.37 | – | ILT70080.6 (antibody, V domains shown, Engineered (germlined) variant of ILT70080, tested as IgG1) VH: QVQLVQSGAEVKKPGSSVKVSCKASGDSFRNYAVSWVRQAPGQGLEWMGAMMPSFGTREHSQQFQGRVTLTADESTSTAYMELSSLRSEDTAVYYCAGSRDYNAYHFWTGPPDFWGRGTLVTVSS VL: SYVLTQPPSVSVAPGKTARITCGGDSVGSTSVHWYQQKPGQAPVLVIYYNSDRPSGIPERFSGSNSGNTATLTISRVEAGDEADYYCQVWDTSSDHPEFGGGTKLTVL | EC50 [12]: 0.287 nM; EC50 (cynomolgus ILT7 [13]): 0.428 nM
7 | 0.00112 nM | 0.00044 nM | – | – | – | – | – | afucosylated ILT70080.6 (antibody, V domains shown, afucosylated, also called afucosylated ILT0080.6) VH: QVQLVQSGAEVKKPGSSVKVSCKASGDSFRNYAVSWVRQAPGQGLEWMGAMMPSFGTREHSQQFQGRVTLTADESTSTAYMELSSLRSEDTAVYYCAGSRDYNAYHFWTGPPDFWGRGTLVTVSS VL: SYVLTQPPSVSVAPGKTARITCGGDSVGSTSVHWYQQKPGQAPVLVIYYNSDRPSGIPERFSGSNSGNTATLTISRVEAGDEADYYCQVWDTSSDHPEFGGGTKLTVL | EC50 [14]: 0.152 nM; EC50 (cynomolgus ILT7 [15]): 0.366 nM
8 | – | 0.188 nM | – | 1.63 | – | – | 180 | ILT70100 (antibody, V domains shown) VH: not shown VL: DIQLTQSPSSLSASVGERVTITCQASQDIRSYLNWYQQKPGKAPKLLIYDVSNLETGVPSRFSGSGSGTEYTFSISSLQPEDFATYYCQQYDKAPLTFGGGTKVEIK | –
9 | 0.044 nM | 0.015 nM | – | 1.4 | – | – | – | ILT70137 (antibody, V domains shown) VH: QVQLQQSGAEVKKPGASVKVSCKASGYTFTSYGISWVRQAPGQGLEWMGWISAYNGNTNYAQKLQGRVTMTTDTSTSTAYMELRSLRSDDTAVYYCARNGLWGWDSDAFDIWGRGTLVTVSS VL: QSALTQPASVSGSPGQSITISCTGTSSDVGGYNYVSWYQQHPGKAPKLMIYDVSNRPSGVSNRFSGSKSGNTASLTISGLQAEDEADYYCSSYTSSSTVVFGGGTKVTVL | EC50 [8]: 0.41 nM
10 | – | – | – | 7.81 | – | – | 1.7 | ILT70144 (antibody, V domains shown) VH: QVQLVQSGAEVKKPGASVKVSCKASGYTFTSYGISWVRQAPGQGLEWMGWISAYNGNTNYAQKLQGRVTMTRDTSISTAYMELSRLRSDDTAVYYCARNGLWGWDSDAFDIWGQGTTVTVSS VL: QSVLTQPPSVSAAPGQKVTISCSGSSSNIGNNYVSWYQQLPGTAPKLLIYDNNKRPSGIPDRFSGSKSGTSATLGITGLQTGDEADYYCGTWDSSLSAGVFGTGTQLTVL | –
